Data published in patent publication US8492099B2, “Method of measuring enzymatic activity of adsorbed allergenic enzyme” (Alk-Abello A/S, priority 2005, dated 2013).

What was measured:
[1] = Adsorption of papain to aluminium hydroxide: active enzyme by active site titration with E-64; format: biochemical
Procedure: (§1) After adsorption 500 μL was taken out for further analysis and the rest of the mixture was centrifuged for 10 min at 400 rpm. The rest of the samples analysed follow the flow scheme in FIG. 12. Furthermore a control (Con) containing papain in Bis-Tris buffer in the absence of aluminium hydroxide was prepared.
The active site titration was used to estimate the amount of active enzyme in the different samples. This is in contrast to the protein concentration estimated from A280 which represents the total protein content of the sample.

[2] = Papain activity over time in the absence of aluminium hydroxide; format: physicochemical; settings: 10 μg/mL papain in 50 mM Bis-Tris, 4° C.
Procedure: Papain was mixed with 50 mM Bis-Tris buffer to a final concentration of 10 μg/mL in a total volume of 500 μL. The mixture was incubated at 4° C. and samples were taken out at 0, 30 and 60 min. The samples were diluted and incubated for 10 min in buffer containing DTT and subsequently activity was measured after addition of substrate. […] Additional loss occurs until the initiation of the enzymatic assay.

[3] = Adsorption of papain to aluminium hydroxide: protein concentration by A280; format: physicochemical; settings: 100 μg/mL papain, 1.14 mg/mL aluminium hydroxide, 1 h at 4° C.; ANOVA p-value=0.615
Description: The aromatic amino acids tryptophan, tyrosine and phenylalanine absorb ultraviolet light. However only tryptophan and tyrosine absorb at 280 nm and tryptophan absorbs 5 times more light than tyrosine. This is due to the […] transition in the indole ring of tryptophan where phenylalanine and tyrosine contains a phenyl group. The absorbance of a protein is linearly correlated with the amount of tryptophan and tyrosine in the protein, the length of the light path and the concentration of protein. This relationship is named Lambert-Beer's law and is given by: A=ε·l·c where A is the absorbance, ε is the molar absorption coefficient for the protein (determined by the amount of tryptophan and tyrosine in the protein) l is the length of the light path and c is the protein concentration. Thus from an absorbance measurement the concentration of protein can be estimated if the molar absorptivity coefficient is known. • Apparatuses • Lambda 800 UV/VIS Spectrometer, PerkinElmer™ • 100-QS, quartz cuvette, path length 1 cm, Hellma® • Materials and Reagents • 50 mM Bis-Tris pH 6.5, Sigma • 50 mM Tris pH 7.0, Sigma • 50 mM phosphate buffer pH 7.0, Merck • 2% Helmanex solution, Hellma Experimental Procedure
The spectrophotometer was turned on 30 min prior to use for a warm up period. […] After cleaning the cuvette 20 μL of sample was transferred to the cuvette and the absorbance was measured. […]

[4] = Papain enzyme activity fluorescence assay (activity measurements and Michaelis-Menten kinetic), papain/aluminium hydroxide adsorption experiment; format: biochemical
Procedure: After measuring the enzymatic activity the maximal slope of the progress curve was estimated using the software SoftMax® PRO Life Sciences Edition, Molecular Devices, 2001. After estimating the initial velocity of the experiments they were transferred to Prism and analyzed.
as §1
Two types of enzymatic assays were performed: (i) activity measurements using a fixed substrate concentration to evaluate enzyme activity and (ii) Michaelis-Menten kinetic to estimate the kinetic parameters Vmax and KM.
All activity assays were conducted with BisTris buffer, pH 6.5, 5 mM DTT/, mM EDTA and Z-FR-AMC as substrate.

[5] = Adsorbed: papain adsorbed to aluminium hydroxide (mix 2)
[6] = Control: papain in the absence of aluminium hydroxide
[7] = activity measurements, 30 μM Z-FR-AMC

B1: papain: cysteine protease Car p 1 from the plant Carica papaya, purified, Sigma; chosen as negative control (protein, UniProt P00784 134-345, looked up)
Papain: IPEYVDWRQKGAVTPVKNQGSCGSCWAFSAVVTIEGIIKIRTGNLNEYSEQELLDCDRRSYGCNGGYPWSALQLVAQYGIHYRNTYPYEGVQRYCRSREKGPYAAKTDGVRQVQPYNEGALLYSIANQPVSVVLEAAGKDFQLYRGGIFVGPCGNKVDHAVAAVGYGPNYILIKNSWGTGWGENGYIRIKRGTGNSYGVCGLYTSSFYPVKN
Active papain adsorbed to aluminium hydroxide (Mix3) [1]: approximately 7%
Active papain in solution (Sup1+Sup2) [1]: 91%
Activity at 60 min lower than at 0 and 30 min (loss of activity) [2]: 7%
Adsorption of papain to aluminium hydroxide (A280, Con vs Sup1) [3]: does not adsorb significantly
Vmax in Mix3 relative to Mix1 [4]: 7%
Vmax in solution (Sup1+Sup2) relative to Mix1 [4]: 97%
Km [4, 5]: 21 µM
Vmax [4, 5]: 44.1 ng/mL · s
kcat (Vmax/protein concentration, A280) [4, 5]: 14.58 s⁻¹
kcat (Vmax/protein concentration, active site titration) [4, 5]: 12.18 s⁻¹
Vmax [4, 6]: 373.9 ng/mL · s
kcat (Vmax/protein concentration, A280) [4, 6]: 5.13 s⁻¹
kcat (Vmax/protein concentration, active site titration) [4, 6]: 11.41 s⁻¹
Km ([4]; Control: papain in the absence of aluminium hydroxide, Z-FR-AMC, pH 6.5): 22 µM
Activity in Mix1 found in solution (Sup1+Sup2) [4, 7]: 96%
Activity of papain adsorbed to aluminium hydroxide (Mix3) [4, 7]: 8%
Difference between KM estimates of samples in presence and absence of aluminium hydroxide ([4]; one-way ANOVA p-value=0.999): no significant difference
Part of the enzyme not bound to the adjuvant ([4]; papain with aluminium hydroxide): 93%
Activity of the control lower than the activity of Mix1 ([4]; papain without vs with aluminium hydroxide): 17%
